# Literature values as cited in publication PMC6764118.
# Target: Lys199 (UniProt position 223, AKQRLKCASLQ)
# Test: chemical modification
substance,measurement,value
Human serum albumin (HSA) (Homo sapiens),pKa,∼8
